These results are taken from patent US8110187.

In experiment [1] the target is CLMF receptor on PHA-activated peripheral blood lymphoblasts (human). Briefly: Scatchard plot analysis of equilibrium binding of 125I-CLMF to PHA-activated lymphoblasts.
In experiment [2] the target is Cytotoxic Lymphocyte Maturation Factor (CLMF) 75 kDa heterodimer (human) (UniProt P29460). Briefly: 125I-CLMF binding to PHA-activated lymphoblasts, supernatant at 1/2 dilution; competitor: CLMF receptor on cells.

CLMF receptor on PHA-activated peripheral blood lymphoblasts (human), sequence (Q99665 24-862, chain 2 of 2, other chains not shown): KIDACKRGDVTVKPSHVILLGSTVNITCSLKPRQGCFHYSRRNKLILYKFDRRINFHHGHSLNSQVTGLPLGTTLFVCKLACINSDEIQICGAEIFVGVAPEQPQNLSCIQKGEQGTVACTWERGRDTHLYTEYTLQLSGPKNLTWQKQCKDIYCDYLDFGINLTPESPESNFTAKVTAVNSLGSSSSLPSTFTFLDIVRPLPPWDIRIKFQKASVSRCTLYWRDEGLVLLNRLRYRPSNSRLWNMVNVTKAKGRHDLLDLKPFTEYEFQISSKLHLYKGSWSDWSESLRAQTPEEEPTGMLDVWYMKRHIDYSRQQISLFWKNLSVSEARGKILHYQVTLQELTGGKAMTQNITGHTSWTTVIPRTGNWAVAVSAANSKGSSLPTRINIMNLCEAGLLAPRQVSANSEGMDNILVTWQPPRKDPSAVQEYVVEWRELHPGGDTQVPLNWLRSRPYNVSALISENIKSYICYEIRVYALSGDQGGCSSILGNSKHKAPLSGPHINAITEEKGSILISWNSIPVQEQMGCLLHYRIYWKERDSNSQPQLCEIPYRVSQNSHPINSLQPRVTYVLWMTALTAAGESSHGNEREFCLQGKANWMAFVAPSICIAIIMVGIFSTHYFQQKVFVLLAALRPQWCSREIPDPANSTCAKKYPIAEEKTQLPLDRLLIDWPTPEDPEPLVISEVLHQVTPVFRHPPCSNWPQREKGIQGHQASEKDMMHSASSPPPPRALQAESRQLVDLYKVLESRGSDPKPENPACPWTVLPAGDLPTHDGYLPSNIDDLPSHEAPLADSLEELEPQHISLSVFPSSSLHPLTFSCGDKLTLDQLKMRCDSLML

As to “Cytotoxic Lymphocyte Maturation Factor (CLMF) 75 kDa heterodimer (from UniProt P29460 23-328; P29459 23-219) (ligand)”, the Kd (as a rule, the constant that tells how readily two partners part at equilibrium) in experiment [1] turned out to be 0.2 nM. As for Control monoclonal antibody, the % inhibition of 125I-CLMF binding to the lymphoblasts in experiment [2] was determined as 10%.
